The term stoichiometry N denotes the number of molecules, sites or subunits per partner or assembly.

Values joined by “and” are separate entries in the source; they are usually repeats but may differ in a detail not shown here. Identical values can stand only once.

Consider one protein from article PMC3324469, “Preparation and Characterization of the Extracellular Domain of Human Sid-1” (PLoS ONE, 2012).

The series concerns the molecule itself. The series is described as follows: SEC; Superdex 200; concentrated protein applied directly to the column, no pre-incubation period; masses estimated against molecular weight standards.

B1: extracellular domain of human SidT1 (SidT1 ECD), glycosylated, secreted from insect cells (domain or fragment)
chain: GAASPGHPAKSPRQPPAPRRDPFDAARGADFDHVYSGVVNLSTENIYSFNYTSQPDQVTAVRVYVNSSSENLNYPVLVVVRQQKEVLSWQVPLLFQGLYQRSYNYQEVSRTLCPSEATNETGPLQQLIFVDVASMAPLGAQYKLLVTKLKHFQLRTNVAFHFTASPSQPQYFLYKFPKDVDSVIIKVVSEMAYPCSVVSVQNIMCPVYDLDHNVEFNGVYQSMTKKAAITLQKKDFPGEQFFVVFVIKPEDYACGGSFFIQEKENQTWNLQRKKNLEVTIVPSIKES
modifications: N-linked glycosylation (sites not given)
notes: N-terminal glycine appendage left from the TEV protease site; human SidT1 (Sid-1 homolog), extracellular domain, residues 19-304 of Entrez Protein AAI17223, after signal peptidase and TEV cleavage; also called SidT1 extracellular domain; recombinant SidT1 ECD; source: Tni (usually) or Sf9 insect cells, baculovirus, secreted into the medium; not shown: His6, N-terminal, cleaved
Regarding B1, the “stoichiometry N” value is 2 and 4.
